The source of these data is US20240400654A1.

B1: KB001 mouse Fab VH S57M (Fab, V domains shown)
VH: EVQLKQSGPGLVAPSQSLSITCTVSGFSLSIYSVHWVRQPPGKGLEWLGMIWGGGSMDYNSALKSRLSISKDNSKSQVFLKMNSLQTDDTAMYYCARNGNFYAMDYWGQGTSVTVSS
VL: QIVLTQSPAIMSASLGERVTMTCTASSSVSSSFLHWYQQKPGSSPQLWIYSTSNLASGVPARFSGSGSGTSYSLTISSMEAEDAATYYCHQYHHSPYIYTFGGGTKLEIK
B2: KB001 mouse Fab VH S61G (Fab, V domains shown)
VH: EVQLKQSGPGLVAPSQSLSITCTVSGFSLSIYSVHWVRQPPGKGLEWLGMIWGGGSSDYNGALKSRLSISKDNSKSQVFLKMNSLQTDDTAMYYCARNGNFYAMDYWGQGTSVTVSS
VL: QIVLTQSPAIMSASLGERVTMTCTASSSVSSSFLHWYQQKPGSSPQLWIYSTSNLASGVPARFSGSGSGTSYSLTISSMEAEDAATYYCHQYHHSPYIYTFGGGTKLEIK
B3: KB001 mouse Fab VH Y59K (Fab, V domains shown)
VH: EVQLKQSGPGLVAPSQSLSITCTVSGFSLSIYSVHWVRQPPGKGLEWLGMIWGGGSSDKNSALKSRLSISKDNSKSQVFLKMNSLQTDDTAMYYCARNGNFYAMDYWGQGTSVTVSS
VL: QIVLTQSPAIMSASLGERVTMTCTASSSVSSSFLHWYQQKPGSSPQLWIYSTSNLASGVPARFSGSGSGTSYSLTISSMEAEDAATYYCHQYHHSPYIYTFGGGTKLEIK
B4: KB001 mouse Fab VH N60T (Fab, V domains shown)
VH: EVQLKQSGPGLVAPSQSLSITCTVSGFSLSIYSVHWVRQPPGKGLEWLGMIWGGGSSDYTSALKSRLSISKDNSKSQVFLKMNSLQTDDTAMYYCARNGNFYAMDYWGQGTSVTVSS
VL: QIVLTQSPAIMSASLGERVTMTCTASSSVSSSFLHWYQQKPGSSPQLWIYSTSNLASGVPARFSGSGSGTSYSLTISSMEAEDAATYYCHQYHHSPYIYTFGGGTKLEIK
B5: KB001 mouse Fab VH N60P (Fab, V domains shown)
VH: EVQLKQSGPGLVAPSQSLSITCTVSGFSLSIYSVHWVRQPPGKGLEWLGMIWGGGSSDYPSALKSRLSISKDNSKSQVFLKMNSLQTDDTAMYYCARNGNFYAMDYWGQGTSVTVSS
VL: QIVLTQSPAIMSASLGERVTMTCTASSSVSSSFLHWYQQKPGSSPQLWIYSTSNLASGVPARFSGSGSGTSYSLTISSMEAEDAATYYCHQYHHSPYIYTFGGGTKLEIK
B6: KB001 mouse Fab VH Y59T (Fab, V domains shown)
VH: EVQLKQSGPGLVAPSQSLSITCTVSGFSLSIYSVHWVRQPPGKGLEWLGMIWGGGSSDTNSALKSRLSISKDNSKSQVFLKMNSLQTDDTAMYYCARNGNFYAMDYWGQGTSVTVSS
VL: QIVLTQSPAIMSASLGERVTMTCTASSSVSSSFLHWYQQKPGSSPQLWIYSTSNLASGVPARFSGSGSGTSYSLTISSMEAEDAATYYCHQYHHSPYIYTFGGGTKLEIK
B7: KB001 mouse Fab VH Y59F (Fab, V domains shown)
VH: EVQLKQSGPGLVAPSQSLSITCTVSGFSLSIYSVHWVRQPPGKGLEWLGMIWGGGSSDFNSALKSRLSISKDNSKSQVFLKMNSLQTDDTAMYYCARNGNFYAMDYWGQGTSVTVSS
VL: QIVLTQSPAIMSASLGERVTMTCTASSSVSSSFLHWYQQKPGSSPQLWIYSTSNLASGVPARFSGSGSGTSYSLTISSMEAEDAATYYCHQYHHSPYIYTFGGGTKLEIK
B8: KB001 mouse Fab VH Y59M/S57I (Fab, V domains shown)
VH: EVQLKQSGPGLVAPSQSLSITCTVSGFSLSIYSVHWVRQPPGKGLEWLGMIWGGGSIDMNSALKSRLSISKDNSKSQVFLKMNSLQTDDTAMYYCARNGNFYAMDYWGQGTSVTVSS
VL: QIVLTQSPAIMSASLGERVTMTCTASSSVSSSFLHWYQQKPGSSPQLWIYSTSNLASGVPARFSGSGSGTSYSLTISSMEAEDAATYYCHQYHHSPYIYTFGGGTKLEIK
B9: KB001 mouse Fab VH S61W (Fab, V domains shown)
VH: EVQLKQSGPGLVAPSQSLSITCTVSGFSLSIYSVHWVRQPPGKGLEWLGMIWGGGSSDYNWALKSRLSISKDNSKSQVFLKMNSLQTDDTAMYYCARNGNFYAMDYWGQGTSVTVSS
VL: QIVLTQSPAIMSASLGERVTMTCTASSSVSSSFLHWYQQKPGSSPQLWIYSTSNLASGVPARFSGSGSGTSYSLTISSMEAEDAATYYCHQYHHSPYIYTFGGGTKLEIK
B10: KB001 mouse Fab VH N60Q (Fab, V domains shown)
VH: EVQLKQSGPGLVAPSQSLSITCTVSGFSLSIYSVHWVRQPPGKGLEWLGMIWGGGSSDYQSALKSRLSISKDNSKSQVFLKMNSLQTDDTAMYYCARNGNFYAMDYWGQGTSVTVSS
VL: QIVLTQSPAIMSASLGERVTMTCTASSSVSSSFLHWYQQKPGSSPQLWIYSTSNLASGVPARFSGSGSGTSYSLTISSMEAEDAATYYCHQYHHSPYIYTFGGGTKLEIK
B11: KB001 mouse Fab VH S61M (Fab, V domains shown)
VH: EVQLKQSGPGLVAPSQSLSITCTVSGFSLSIYSVHWVRQPPGKGLEWLGMIWGGGSSDYNMALKSRLSISKDNSKSQVFLKMNSLQTDDTAMYYCARNGNFYAMDYWGQGTSVTVSS
VL: QIVLTQSPAIMSASLGERVTMTCTASSSVSSSFLHWYQQKPGSSPQLWIYSTSNLASGVPARFSGSGSGTSYSLTISSMEAEDAATYYCHQYHHSPYIYTFGGGTKLEIK
B12: KB001 mouse Fab VH N60S (Fab, V domains shown)
VH: EVQLKQSGPGLVAPSQSLSITCTVSGFSLSIYSVHWVRQPPGKGLEWLGMIWGGGSSDYSSALKSRLSISKDNSKSQVFLKMNSLQTDDTAMYYCARNGNFYAMDYWGQGTSVTVSS
VL: QIVLTQSPAIMSASLGERVTMTCTASSSVSSSFLHWYQQKPGSSPQLWIYSTSNLASGVPARFSGSGSGTSYSLTISSMEAEDAATYYCHQYHHSPYIYTFGGGTKLEIK
B13: KB001 mouse Fab VH S61Y (Fab, V domains shown)
VH: EVQLKQSGPGLVAPSQSLSITCTVSGFSLSIYSVHWVRQPPGKGLEWLGMIWGGGSSDYNYALKSRLSISKDNSKSQVFLKMNSLQTDDTAMYYCARNGNFYAMDYWGQGTSVTVSS
VL: QIVLTQSPAIMSASLGERVTMTCTASSSVSSSFLHWYQQKPGSSPQLWIYSTSNLASGVPARFSGSGSGTSYSLTISSMEAEDAATYYCHQYHHSPYIYTFGGGTKLEIK
B14: KB001 mouse Fab VH D58G (Fab, V domains shown)
VH: EVQLKQSGPGLVAPSQSLSITCTVSGFSLSIYSVHWVRQPPGKGLEWLGMIWGGGSSGYNSALKSRLSISKDNSKSQVFLKMNSLQTDDTAMYYCARNGNFYAMDYWGQGTSVTVSS
VL: QIVLTQSPAIMSASLGERVTMTCTASSSVSSSFLHWYQQKPGSSPQLWIYSTSNLASGVPARFSGSGSGTSYSLTISSMEAEDAATYYCHQYHHSPYIYTFGGGTKLEIK
B15: KB001 mouse Fab VH S61R (Fab, V domains shown)
VH: EVQLKQSGPGLVAPSQSLSITCTVSGFSLSIYSVHWVRQPPGKGLEWLGMIWGGGSSDYNRALKSRLSISKDNSKSQVFLKMNSLQTDDTAMYYCARNGNFYAMDYWGQGTSVTVSS
VL: QIVLTQSPAIMSASLGERVTMTCTASSSVSSSFLHWYQQKPGSSPQLWIYSTSNLASGVPARFSGSGSGTSYSLTISSMEAEDAATYYCHQYHHSPYIYTFGGGTKLEIK
B16: KB001 mouse Fab VH S61F (Fab, V domains shown)
VH: EVQLKQSGPGLVAPSQSLSITCTVSGFSLSIYSVHWVRQPPGKGLEWLGMIWGGGSSDYNFALKSRLSISKDNSKSQVFLKMNSLQTDDTAMYYCARNGNFYAMDYWGQGTSVTVSS
VL: QIVLTQSPAIMSASLGERVTMTCTASSSVSSSFLHWYQQKPGSSPQLWIYSTSNLASGVPARFSGSGSGTSYSLTISSMEAEDAATYYCHQYHHSPYIYTFGGGTKLEIK
B17: KB001 mouse Fab VH Y59R (Fab, V domains shown)
VH: EVQLKQSGPGLVAPSQSLSITCTVSGFSLSIYSVHWVRQPPGKGLEWLGMIWGGGSSDRNSALKSRLSISKDNSKSQVFLKMNSLQTDDTAMYYCARNGNFYAMDYWGQGTSVTVSS
VL: QIVLTQSPAIMSASLGERVTMTCTASSSVSSSFLHWYQQKPGSSPQLWIYSTSNLASGVPARFSGSGSGTSYSLTISSMEAEDAATYYCHQYHHSPYIYTFGGGTKLEIK
B18: KB001 mouse Fab VH S57T (Fab, V domains shown)
VH: EVQLKQSGPGLVAPSQSLSITCTVSGFSLSIYSVHWVRQPPGKGLEWLGMIWGGGSTDYNSALKSRLSISKDNSKSQVFLKMNSLQTDDTAMYYCARNGNFYAMDYWGQGTSVTVSS
VL: QIVLTQSPAIMSASLGERVTMTCTASSSVSSSFLHWYQQKPGSSPQLWIYSTSNLASGVPARFSGSGSGTSYSLTISSMEAEDAATYYCHQYHHSPYIYTFGGGTKLEIK
B19: KB001 mouse Fab VH D58S (Fab, V domains shown)
VH: EVQLKQSGPGLVAPSQSLSITCTVSGFSLSIYSVHWVRQPPGKGLEWLGMIWGGGSSSYNSALKSRLSISKDNSKSQVFLKMNSLQTDDTAMYYCARNGNFYAMDYWGQGTSVTVSS
VL: QIVLTQSPAIMSASLGERVTMTCTASSSVSSSFLHWYQQKPGSSPQLWIYSTSNLASGVPARFSGSGSGTSYSLTISSMEAEDAATYYCHQYHHSPYIYTFGGGTKLEIK

Values joined by “and” are separate entries in the source; they are usually repeats but may differ in a detail not shown here. Equal values may be shown once.

This assay has as its target HRgpA-6H (Porphyromonas gingivalis) (UniProt P28784). Kind of assay: ELISA, coated HRgpA-6H.
UniProt P28784, sequence (P28784 228-860 limits assumed): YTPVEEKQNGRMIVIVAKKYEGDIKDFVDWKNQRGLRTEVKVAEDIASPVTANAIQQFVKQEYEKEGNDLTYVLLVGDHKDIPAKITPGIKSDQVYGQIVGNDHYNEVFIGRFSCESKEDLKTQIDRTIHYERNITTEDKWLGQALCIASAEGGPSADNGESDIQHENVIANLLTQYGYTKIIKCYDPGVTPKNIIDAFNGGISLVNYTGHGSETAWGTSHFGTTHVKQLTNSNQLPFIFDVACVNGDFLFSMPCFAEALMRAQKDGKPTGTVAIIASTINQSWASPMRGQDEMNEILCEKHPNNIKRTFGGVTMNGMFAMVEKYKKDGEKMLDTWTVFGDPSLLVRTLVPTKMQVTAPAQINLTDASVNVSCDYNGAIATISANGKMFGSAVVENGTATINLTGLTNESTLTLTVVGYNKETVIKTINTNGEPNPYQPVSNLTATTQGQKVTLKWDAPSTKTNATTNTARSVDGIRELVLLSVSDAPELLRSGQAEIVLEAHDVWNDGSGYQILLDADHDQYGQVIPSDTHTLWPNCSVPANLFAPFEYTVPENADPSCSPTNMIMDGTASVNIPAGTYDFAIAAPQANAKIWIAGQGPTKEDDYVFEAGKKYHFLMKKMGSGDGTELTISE
As to B1, the OD450 nm was 0.748 and the Ratio OD(Variant)/OD(WT) amounted to 0.85.

With B2, the OD450 nm was 0.46 and 0.476; the Ratio OD(Variant)/OD(WT) is 0.932 and 0.965.

Turning to B3, the OD450 nm was 0.648 and the Ratio OD(Variant)/OD(WT) stood at 0.819.

For the molecule B4, the OD450 nm came out at 0.406 and the Ratio OD(Variant)/OD(WT) stood at 0.823.

On to B5, for which the OD450 nm was 0.44 and 0.428; the Ratio OD(Variant)/OD(WT) was 0.892 and 0.867.

Turning to B6, the OD450 nm is 0.744 and the Ratio OD(Variant)/OD(WT) turned out to be 0.941.

For the molecule B7, the OD450 nm was 0.668 and the Ratio OD(Variant)/OD(WT) amounted to 0.845.

In the case of B8, the OD450 nm turned out to be 0.701 and the Ratio OD(Variant)/OD(WT) was determined as 0.886.

As for B9, the OD450 nm was 0.435 and 0.429; the Ratio OD(Variant)/OD(WT) is 0.881 and 0.869.

As to B10, the OD450 nm was 0.447 and 0.402; the Ratio OD(Variant)/OD(WT) was 0.906 and 0.815.

Turning to B11, the OD450 nm was 0.493 and 0.479; the Ratio OD(Variant)/OD(WT) was 0.999 and 0.971.

With B12, the OD450 nm came out at 0.452 and the Ratio OD(Variant)/OD(WT) worked out at 0.916.

Turning to B13, the OD450 nm stood at 0.423 and the Ratio OD(Variant)/OD(WT) came to 0.857.

Regarding B14, the OD450 nm was found to be 0.778 and the Ratio OD(Variant)/OD(WT) was 0.984.

For B15, the OD450 nm was found to be 0.438 and the Ratio OD(Variant)/OD(WT) was determined as 0.888.

As to B16, the OD450 nm was 0.432 and 0.473; the Ratio OD(Variant)/OD(WT) is 0.875 and 0.958.

For the molecule B17, the OD450 nm was found to be 0.633 and the Ratio OD(Variant)/OD(WT) was determined as 0.8.

Turning to B18, the OD450 nm was 0.843 and 0.849; the Ratio OD(Variant)/OD(WT) was 0.958 and 0.965.

For the molecule B19, the OD450 nm came out at 0.646 and the Ratio OD(Variant)/OD(WT) turned out to be 0.817.
